{"source": "patent US20040176573A1", "key": {"HLA-A2 (human) [1]": {"molecular_target": "HLA-A2 (human)"}, "HLA-A2 (human) [2]": {"molecular_target": "HLA-A2 (human)", "remark": "listed apart in the source"}}, "note": "Where two headings read alike, the source gives them in different places.", "data": [{"substance": "HIV-1 pol476-484 (peptide; other documents disagree on this pair)", "values": [{"measurement": "C50", "setting": "HLA-A2 (human) [1]", "result": 0.2, "unit": "µM"}, {"measurement": "C50", "setting": "HLA-A2 (human) [2]", "result": 0.7, "unit": "µM"}]}]}
